From a protein production outcome set (Wang et al. 2014)

Assay: label from the status in PepcDB records
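Note: failed if final PepcDB status was selected cloned or expressed and not failed if soluble or beyond.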

| Sequence | protein production |
| --- | --- |
| MSLRLADFGFTDGINEIIAITENEDGSWNAAPIGIIVEDSSSDTAKAKLYRNRTRANLERSGVLFANVTDDALVFAVSSFGNLNDDWYASPNPPIIKGAMAWCRFEAEMRSGVAHLKLTDGEIIEKRVRAINRGLSAVIEALVHATRYVAIKSDERRKELLERIHYYREIVQKCGSEREKRAFEIIMEKIGEGHHHHHH | not failed |
| MSLNETYMMITFQSGMDYWKRCLKGFEDAAQALNVTVEYRGAAQYDIQEQITVLEQAIAKNPAGIAISAIDPVELTDTINKAVDAGIPIVLFDSGAPDSHAHSFLGTNNYNAGMNAAYKMAELLDGEGEVAVITLPNQLNHQERTTGFKETLEAEFPAIEVIAVEDGRGDSLHSRRVAHQLLEDYPNLAGIFATEANGGVGVGDAVRLESRAGEIQIISFDTDKGTLDLVDEGIISATLAQGTWNMGYWSLTYLFHLHHGLTEPQILQTREEAPLPLYVDTGITIVTDENVDYYYADEGHHHHHH | not failed |
| MAEANTPHIAIMPSPGMGHLIPFVELAKRLVQHDCFTVTMIISGETSPSKAQRSVLNSLPSSIASVFLPPADLSDVPSTARIETRAMLTMTRSNPALRELFGSLSTKKSLPAVLVVDMFGADAFDVAVDFHVSPYIFYASNANVLSFFLHLPKLDKTVSCEFRYLTEPLKIPGCVPITGKDFLDTVQDRNDDAYKLLLHNTKRYKEAKGILVNSFVDLESNAIKALQEPAPDKPTVYPIGPLVNTSSSNVNLEDKFGCLSWLDNQPFGSVLYISFGSGGTLTCEQFNELAIGLAESGKRFIWVIRSPSEIVSSSYFNPHSETDPFSFLPIGFLDRTKEKGLVVPSWAPQVQILAHPSTCGFLTHCGWNSTLESIVNGVPLIAWPLFAEQKMNTLLLVEDVGAALRIHAGEDGIVRREEVVRVVKALMEGEEGKAIGNKVKELKEGVVRVLGDDGLSSKSFGEVLLKWKTHQRDINQETSH | failed |
| MEKLNFGIPEWAFEFHGHKCPYMPMGYRAGSYALKIAGLEKEKDHRTYLLSEMSPEDMNGCFNDGAQAATGCTYGKGLFSLLGYGKLALILYRPGRKAIRVHVRNSFMDELSTRASDFFRYRKQGYEPSEIPAGAIDPVLEWISSLEDEEIFEYREIDGFTFEPVKKNGAKVRCDVCGEYTYEADAKLLNGKPVCKPDYYGKK | not failed |
| MNSLPIADLLASAVIAACIVISTMRGVIAEAGSMVAWVVSFFFAKLFAAPFADLAFASFQPRLFALALSFISLFVIACLIQKMLRSLLTGAVSAVGLGFANRILGGVFGALKGVLIVTLLIMLASKTDLPDTEEWQQSYTVPFFVSLSEAVLNHTDNAPESLDDD | failed |
| MELDAFNKGAIPLINHPDCSALGYQVIQELGRNQEEGRITYLAHHHQSKQQVVIKEFSFAHTYTDWCDFTAYESEAKILQKLNHPRIPRYLDSFATQTGFYLVQEYKHALPLSSKRSFQPEEIKQIAVSVLEILVYLQQRIDPIIHRDIKPENILVDEQLNAYLVDFGLARVQDTKIALTSLLTGTPGFIPPEEQLGYSLSLASDLYSVGATLICLLANIRSVDIGKLIDSKGYFDFQKLDSQIDLRFRSWLMGMVEPKWQYRYTNAADALAALQPIQVTGNATAMEILATVIKLKYQTTVLGLAIIGVLAVAGATLILSQQGGAAQQLQEARK | failed |
| MNYPLTLEMDLENLEDLFWELDRLDNYNDTSLVENHLCPATEGPLMASFKAVFVPVAYSLIFLLGVIGNVLVLVILERHRQTRSSTETFLFHLAVADLLLVFILPFAVAEGSVGWVLGTFLCKTVIALHKVNFYCSSLLLACIAVDRYLAIVHAVHAYRHRRLLSIHITCGTIWLVGFLLALPEILFAKVSQGHHNNSLPRCTFSQENQAETHAWFTSRFLYHVAGFLLPMLVMGWCYVGVVHRLRQAQRRPQRQKAVRVAILVTSIFFLCWSPYHIVIFLDTLARLKAVDNTCKLNGSLPVAITMCEFLGLAHCCLNPMLYTFAGVKFRSDLSRLLTKLGCTGPASLCQLFPSWRRSSLSESENATSLTTF | failed |
| KYTQNNFITGVRAINEFCLKSSDLEQLRKIRRRSPHEDTESFTVYLRSDVEAKSLEVWGSPEALAREKKLRKEAEIEYRERLFRNQKILREYRD | not failed |
| LPIIVKWGGQEYSVTTLSKDDTVLDLKQFLKTLTGVLPERQKLLGLKVKGKPAENDVKLGALKLKPNTKIMMMGTRE | not failed |
